Source: patent publication US20170355757A1 (Regeneron, published 2017)
Each block holds one binder with its values, some of them ahead of it.

Tests used:
human C5 R885H-mmh [1] = molecular target: T1, human C5 R885H-mmh (human, UniProt P01031 19-1676); assay: SPR, mAb captured via anti-hFc, 25C
T1 construct: also called human C5 variant R885H
How it was run: (§1)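 Sensorgrams of tagged or untagged C5 binding to anti-hFc-captured mAbs, fitted 1:1; KD calculated from the ratio of rate constants.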

human C5 R885C-mmh [2] = molecular target: T2, human C5 R885C-mmh (human, UniProt P01031 19-1676); assay: SPR, mAb captured via anti-hFc, 25C
T2 construct: also called human C5 variant R885C
How it was run: as §1

human C5 [3] = molecular target: T3, human C5 (human, UniProt P01031 19-1676); assay: SPR, mAb captured via anti-hFc, dissociation at pH7.4 vs pH6.0, 25C
T3 construct: Bought human C5 (EMD #204888, said elsewhere to be purified from plasma); also called hC5; complement component 5
How it was run: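 Anti-C5 mAbs (human IgG4 Fc) captured on an amine-coupled mouse anti-human Fc surface; recombinant C5 dissociation followed by Biacore T200 in PBS-T (0.01M phosphate, 0.15M NaCl, 0.05% Tween-20) at pH7.4 or pH6.0. Dissociative half-life (t½) calculated from kd.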

human C5 R885H-mmh [4] = molecular target: T1, human C5 R885H-mmh; assay: SPR, mAb captured via anti-hFc, 37C
How it was run: as §1

monkey C5-mmh [5] = molecular target: T4, monkey C5-mmh (monkey, UniProt P01031 19-1676 (human entry), limits assumed); assay: SPR, mAb captured via anti-hFc, 37C
T4 construct: Recombinant monkey C5 with a C-terminal myc-myc-hexahistidine tag
T4 chain: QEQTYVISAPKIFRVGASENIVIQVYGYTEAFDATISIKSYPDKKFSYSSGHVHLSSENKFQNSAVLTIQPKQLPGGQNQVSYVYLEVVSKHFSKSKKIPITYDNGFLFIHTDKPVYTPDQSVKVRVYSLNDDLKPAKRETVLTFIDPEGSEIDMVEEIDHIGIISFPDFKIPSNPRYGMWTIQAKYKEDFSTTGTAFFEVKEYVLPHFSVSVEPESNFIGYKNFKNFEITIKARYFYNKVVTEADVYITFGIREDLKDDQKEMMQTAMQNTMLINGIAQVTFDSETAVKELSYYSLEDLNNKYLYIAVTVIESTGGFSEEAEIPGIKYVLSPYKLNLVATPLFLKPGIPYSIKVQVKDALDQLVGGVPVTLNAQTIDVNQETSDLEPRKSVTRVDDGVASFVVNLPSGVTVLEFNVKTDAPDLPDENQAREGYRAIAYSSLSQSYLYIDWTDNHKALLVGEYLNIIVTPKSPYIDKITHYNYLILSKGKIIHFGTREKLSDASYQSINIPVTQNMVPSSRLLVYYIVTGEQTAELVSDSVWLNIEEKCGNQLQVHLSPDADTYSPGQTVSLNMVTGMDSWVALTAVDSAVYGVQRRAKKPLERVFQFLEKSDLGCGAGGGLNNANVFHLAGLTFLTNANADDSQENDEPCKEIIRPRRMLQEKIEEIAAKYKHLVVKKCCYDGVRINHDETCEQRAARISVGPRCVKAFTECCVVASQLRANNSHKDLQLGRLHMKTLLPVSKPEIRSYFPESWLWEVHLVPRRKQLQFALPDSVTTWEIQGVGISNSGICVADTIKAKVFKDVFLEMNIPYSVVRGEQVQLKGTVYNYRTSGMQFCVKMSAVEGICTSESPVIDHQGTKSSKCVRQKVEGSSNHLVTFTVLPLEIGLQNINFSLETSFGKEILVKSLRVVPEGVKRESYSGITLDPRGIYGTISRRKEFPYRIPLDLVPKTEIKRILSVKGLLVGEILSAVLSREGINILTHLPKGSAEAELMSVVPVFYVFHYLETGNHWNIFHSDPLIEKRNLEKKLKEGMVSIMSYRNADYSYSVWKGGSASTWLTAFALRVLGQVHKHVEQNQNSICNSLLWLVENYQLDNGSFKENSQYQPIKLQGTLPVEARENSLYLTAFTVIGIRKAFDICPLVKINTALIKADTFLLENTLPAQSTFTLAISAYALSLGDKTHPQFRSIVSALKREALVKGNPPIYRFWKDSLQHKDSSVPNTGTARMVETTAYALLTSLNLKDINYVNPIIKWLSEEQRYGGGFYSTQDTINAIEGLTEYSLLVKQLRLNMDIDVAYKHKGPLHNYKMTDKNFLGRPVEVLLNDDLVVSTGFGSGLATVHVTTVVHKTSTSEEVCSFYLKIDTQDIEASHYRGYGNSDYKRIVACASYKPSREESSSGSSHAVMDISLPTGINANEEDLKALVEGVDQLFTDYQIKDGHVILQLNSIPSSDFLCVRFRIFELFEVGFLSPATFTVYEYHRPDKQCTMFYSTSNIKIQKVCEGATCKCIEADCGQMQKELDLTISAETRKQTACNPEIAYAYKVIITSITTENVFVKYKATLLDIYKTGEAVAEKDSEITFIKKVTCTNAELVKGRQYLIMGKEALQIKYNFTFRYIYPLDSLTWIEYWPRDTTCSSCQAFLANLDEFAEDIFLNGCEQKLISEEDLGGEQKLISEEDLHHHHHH
How it was run: as §1

human C5 R885C-mmh [6] = molecular target: T2, human C5 R885C-mmh; assay: SPR, mAb captured via anti-hFc, 37C
How it was run: as §1

human C5 R885C-mmh [7] = molecular target: human C5 R885C-mmh (human, UniProt P01031 19-1676); assay: cell-based or functional assay
human C5 R885H-mmh [8] = molecular target: human C5 R885H-mmh (human, UniProt P01031 19-1676); assay: cell-based or functional assay
African green monkey C5 [9] = molecular target: T5, African green monkey C5 (African green monkey); assay: cell-based or functional assay
human C5 [10] = molecular target: T6, human C5 (human, UniProt P01031 19-1676); assay: cell-based or functional assay
human C5 [11] = molecular target: T6, human C5; assay: SPR (Biacore), mAb captured, dissociation of human C5 at pH7.4 vs pH6.0, 37°C
Description: Effect of pH on the rate of dissociation of recombinant human C5 bound to purified anti-C5 monoclonal antibodies was determined using a real-time surface plasmon resonance biosensor using a Biacore T200 instrument. The Biacore sensor surface was first derivatized by amine coupling with a monoclonal mouse anti-human Fc antibody (GE, # BR-1008-39) to capture anti-C5 monoclonal antibodies expressed with human IgG4 Fc. All Biacore binding studies were performed using two running buffers PBS-T, pH7.4 (0.01M Na₂HPO₄/NaH₂PO₄, 0.15M NaCl, 0.05% v/v Tween-20, adjusted to pH7.4) and PBS-T, pH6.0 (0.01M Na₂HPO₄/NaH₂PO₄, 0.15M NaCl, 0.05% v/v Tween-20, adjusted to pH6.0). […] Binding dissociative half-lives (t %) were calculated from kd as: […]

African green monkey C5 [12] = molecular target: T5, African green monkey C5; assay: cell-based or functional assay; remark: listed apart in the source
monkey C5-mmh [13] = molecular target: T7, monkey C5-mmh (monkey, UniProt P01031 19-1676 (human entry), limits assumed); assay: SPR (Biacore), mAb captured, dissociation of monkey C5 at pH7.4 vs pH6.0, 37°C
T7 construct: recombinant, with C-terminal myc-myc-hexahistidine tag
T7 chain: T4 chain

human C5 [14] = molecular target: T6, human C5; assay: cell-based or functional assay; remark: listed apart in the source
Cynomolgus monkey C5 = Cynomolgus monkey C5 (cynomolgus monkey, UniProt A0A2K5U1T1 19-1676); assay: cell-based or functional assay

- 100 nM Human C5 R885H-mmh Bound (RU) (human C5 R885H-mmh [1]): 232 RU
- Kd (human C5 R885H-mmh [1]): 4.01 nM
- koff (human C5 R885H-mmh [1]): 0.000592 s⁻¹
- kon (human C5 R885H-mmh [1]): 148000 M⁻¹ s⁻¹
- t1/2 (human C5 R885H-mmh [1]): 20 min
- 100 nM Human C5 R885C-mmh Bound (RU) (human C5 R885C-mmh [2]): 177 RU
- Kd (human C5 R885C-mmh [2]): 13.2 nM
- koff (human C5 R885C-mmh [2]): 0.00132 s⁻¹
- kon (human C5 R885C-mmh [2]): 100000 M⁻¹ s⁻¹
- t1/2 (human C5 R885C-mmh [2]): 9 min
- t1/2 Ratio pH7.4/pH6.0 (human C5 [3]): ≤ 0.5
- 100 nM Human C5 R885H-mmh Bound (RU) (human C5 R885H-mmh [4]): 51 RU
- Kd (human C5 R885H-mmh [4]): 10 nM
- koff (human C5 R885H-mmh [4]): 0.00276 s⁻¹
- kon (human C5 R885H-mmh [4]): 276000 M⁻¹ s⁻¹
- t1/2 (human C5 R885H-mmh [4]): 4 min
- 100 nM monkey C5-mmh Bound (RU) (monkey C5-mmh [5]): 27 RU
- Kd (monkey C5-mmh [5]): 47.7 nM
- koff (monkey C5-mmh [5]): 0.00717 s⁻¹
- kon (monkey C5-mmh [5]): 150000 M⁻¹ s⁻¹
- t1/2 (monkey C5-mmh [5]): 2 min
- 100 nM Human C5 R885C-mmh Bound (RU) (human C5 R885C-mmh [6]): 31 RU
- Kd (human C5 R885C-mmh [6]): 47.6 nM
- koff (human C5 R885C-mmh [6]): 0.00507 s⁻¹
- kon (human C5 R885C-mmh [6]): 107000 M⁻¹ s⁻¹
- t1/2 (human C5 R885C-mmh [6]): 2 min
B1: H4H12177P2 (antibody, human IgG4, V domains shown)
VH: EVQLVESGGGVVQRGESLRLSCSASDFIFKDYAMYWVRQIPGKGLEWISLISGDGDTTWYGDSVKGRFTISRDNNENSLFLQMNDLRTEDTAMYYCARDMGWNFFQLQYWGQGTLVTVSS
VL: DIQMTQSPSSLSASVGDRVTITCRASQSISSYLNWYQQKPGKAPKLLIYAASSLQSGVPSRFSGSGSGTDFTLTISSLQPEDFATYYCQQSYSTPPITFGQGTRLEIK
notes: Human IgG4 Fc with S108P hinge mutation (H4H)

- IC50, inhibition of CDC of Daudi cells, C5 depleted human serum and 6.6 nM C5 Variant R885C (human C5 R885C-mmh [7]): 1 nM
- IC50, inhibition of CDC of Daudi cells, C5 depleted human serum and 6.6 nM C5 Variant R885H (human C5 R885H-mmh [8]): 1.8 nM
- IC50, inhibition of CDC of Daudi cells, 1.66% African Green monkey serum (African green monkey C5 [9]): 2.6 nM
- IC50, inhibition of CDC of Daudi cells, 1.66% human serum (human C5 [10]): 2.4 nM
- t½ Ratio pH7.4/pH6.0 (human C5 [11]): ≤ 0.7
- t½ Ratio pH7.4/pH6.0 (monkey C5-mmh [13]): 10.7
B2: H4H12161P (antibody, human IgG4, V domains shown)
VH: EVQLVESGGDLVQPGGSLRLSCAASGFTFSDHYMDWVRQAPGKGLDWIGRIRNKANAYNTEYAASVRGRFTISRDDSQNLLYLQMNSLKTDDTAVYYCVRVWNYAYFAMDVWGQGTTVTVSS
VL: DIQMTQSPSSLSASVGDRVTITCRSSQNIGIFLNWYQQKPGEAPNLLISAASSLHSGVPSRFSGSGSGTDFTLTIGSLQPEDFATYYCQQTYNTIFTFGPGTKVDIK
notes: H4H: human IgG4 Fc with S108P hinge mutation
- AGM AP % Max Inhibition, hemolysis assay, 5% serum (African green monkey C5 [12]): 35.7%
- AGM CP % Max Inhibition, hemolysis assay, 5% serum (African green monkey C5 [12]): 78.9%
- AGM Serum AP IC50, hemolysis assay, 5% serum (African green monkey C5 [12]): 47.5 nM
- AGM Serum CP IC50, hemolysis assay, 5% serum (African green monkey C5 [12]): 31.9 nM
- Human AP % Max Inhibition, hemolysis assay, NHS (human C5 [14]): 56.1%
- Human AP IC50, hemolysis assay, NHS (human C5 [14]): 25.5 nM
- Human CP % Max Inhibition, hemolysis assay, NHS (human C5 [14]): 93.7%
- Human CP IC50, hemolysis assay, NHS (human C5 [14]): 2.56 nM
- Cyno AP % Max Inhibition, hemolysis assay, 5% serum (Cynomolgus monkey C5): 98.4%
- Cyno CP % Max Inhibition, hemolysis assay, 5% serum (Cynomolgus monkey C5): 100%
- Cyno Serum AP IC50, hemolysis assay, 5% serum (Cynomolgus monkey C5): 7.8 nM
- Cyno Serum CP IC50, hemolysis assay, 5% serum (Cynomolgus monkey C5): 27.9 nM
